Reference: publication PMC4587339 (Journal of molecular biology, 2015)
Where “and” joins values, the source holds several entries; their conditions need not be identical. Equal values may be shown once.

T1: S-terminase (small terminase subunit) of bacteriophage P22, full length, MBP cleaved off (bacteriophage P22, UniProt P04893 1-162)
T1 sequence (looked up): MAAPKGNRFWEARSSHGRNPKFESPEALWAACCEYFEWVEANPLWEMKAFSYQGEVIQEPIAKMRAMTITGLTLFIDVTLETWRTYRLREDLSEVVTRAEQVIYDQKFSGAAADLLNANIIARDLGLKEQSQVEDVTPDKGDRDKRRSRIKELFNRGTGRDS

T2: MBP-tagged L-terminase Binding Domain of P22 S-terminase (residues 140-162) (bacteriophage P22, UniProt P04893 140-162)
T2 chain (looked up): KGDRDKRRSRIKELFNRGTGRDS

T3: full length L-terminase of bacteriophage P22, purified alone for the pull-down (bacteriophage P22, UniProt P26745 1-499)
T3 sequence (looked up): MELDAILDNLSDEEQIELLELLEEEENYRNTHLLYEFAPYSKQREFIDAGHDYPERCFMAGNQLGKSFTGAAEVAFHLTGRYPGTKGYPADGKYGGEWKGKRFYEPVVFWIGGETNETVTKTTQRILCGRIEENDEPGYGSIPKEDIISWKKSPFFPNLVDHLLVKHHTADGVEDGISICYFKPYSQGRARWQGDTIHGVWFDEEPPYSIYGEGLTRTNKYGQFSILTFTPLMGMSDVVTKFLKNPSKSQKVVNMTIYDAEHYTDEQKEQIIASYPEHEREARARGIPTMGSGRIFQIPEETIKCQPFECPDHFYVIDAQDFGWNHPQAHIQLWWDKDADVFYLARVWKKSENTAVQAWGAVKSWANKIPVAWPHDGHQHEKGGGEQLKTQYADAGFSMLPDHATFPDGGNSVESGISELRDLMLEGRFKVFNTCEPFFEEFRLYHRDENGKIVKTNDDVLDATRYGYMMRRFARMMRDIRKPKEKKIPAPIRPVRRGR

T4: L-terminase ATPase domain of bacteriophage P22 (residues 1-287) (bacteriophage P22, UniProt P26745 1-287)
T4 sequence (looked up): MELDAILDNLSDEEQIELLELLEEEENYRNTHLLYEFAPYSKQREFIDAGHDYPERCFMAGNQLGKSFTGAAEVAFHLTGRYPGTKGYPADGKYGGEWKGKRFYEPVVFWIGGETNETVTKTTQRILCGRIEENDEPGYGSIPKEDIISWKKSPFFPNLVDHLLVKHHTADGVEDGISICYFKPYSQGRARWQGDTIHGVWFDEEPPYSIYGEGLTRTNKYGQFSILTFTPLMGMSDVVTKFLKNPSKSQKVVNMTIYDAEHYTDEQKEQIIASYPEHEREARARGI

B1: L-terminase (large terminase subunit) of bacteriophage P22, full length, co-expressed (enzyme, UniProt P26745 1-499, looked up)
chain: T3 sequence (looked up)

Tests used:
[1] = target: T1, S-terminase (small terminase subunit) …; experiment: native MS
[2] = target: T2, MBP-tagged L-terminase Binding Domain …; experiment: AUC
[3] = target: T3, full length L-terminase of …; experiment: pull-down
[4] = target: T4, L-terminase ATPase domain of …; experiment: pull-down

Binder	stoichiometry N [1]	stoichiometry N [2] [L-terminase per MBP-LBD]	binding result [3]	binding result [4]
B1	1 L-terminase per S-terminase nonamer and 2 L-terminase per S-terminase nonamer and 3 L-terminase per S-terminase nonamer	1		
KGDRDKRRSRIKELFNRGTGRDS (domain or fragment, bacteriophage P22, UniProt P04893 140-162, looked up) [GST-tagged L-terminase Binding Domain of P22 S-terminase (residues 140-162)]			binds	binds
